The record followed here is paper PMC6908751 (Cell host & microbe, 2019).

The target of this assay is Sh2 N9 NA ectodomain plus stalk with His6-tag (tetramer) (influenza A virus A/Shanghai/02/2013 …). In words: cryo-EM structure.

B1: human anti-N9 antibody NA-73 Fab (Fab, V domains shown)
VH: QVQLEESGPGLVKPSETLSLTCTVSGYTISSGYYWGWIRQPPGKGLEWIGCNNHRGSSYYNPSLKSRVIISVDTTKNKFSLKLSSVTAADTAVYYCARDPSFWSSTSRTSPYYYGMDVWGQGTLVTVSS
VL: not shown
Turning to B1, the “stoichiometry N” value came out at 1 Fab per NA protomer.

B2: human anti-N9 antibody NA-80 Fab (Fab, V domains shown)
VH: QVQLVQSGAEVKRPGASVKVSCKASGYTFISYGISWVRQAPGQGLEWMGWISAYNGNTNYAQNLQGRVTMTTDTSTSTAYMELRSLRSDDTAVYYCARVIPGTAVDYFDYWGQGTLVTVSS
VL: DIVMTQSPSSLSASVGDRVTISCRASQSISSYLNWYQQKPGKAPKLLIYAASSLQSGVPSRFSGSASGTDFTLTISSLQPEDFATYYCQQSYSAPFTFGPGTKVDIE
As to B2, the “stoichiometry N” value is 1 Fab per NA protomer.

B3: human anti-N9 antibody NA-63 Fab (Fab, V domains shown)
VH: EVQLVESGGGLVQPGGSLRLSCAASGFTFSSYWMSWVRQAPGKGLDWVANIKQDGSEKYYVDSVKGRFTISRHNAKNSLYLQMNSLRAEDTAVYYCASSTAAEFFDYWGQGTLVTVSS
VL: DIVMTQSPSSLSASVGDRVTITCRASQSISTYLNWYQQKPGKAPKLLIYAASSLQGGVPSRFSGSGSGTDFTLTISSLQPEDFATYYCQQSYSTPLYTFGQGTKLEIK
As to B3, the binding result was “binds”.

B4: human anti-N9 antibody NA-22 Fab (Fab, V domains shown)
VH: QVQLVESGGGVVQPGRSLRLSCAASGFTFNNYGMHWVRQAPGKGLEWVAVISYDGSNKYYADSVKGRFTISRDNSKNTLYLQMNSLRAEDTAVYYCAKDKRFITMILVGPFDYWGQGTLVTVSS
VL: QSVLTQPASVSGSPGQSITISCTGTSSDVGGYNYVSWHQQHPGKAPKLMIYDVSNRPSGVSNRFSGSKSGNTASLTISGLQTEDEADYYCSSYTSSTTNVFGTGTKVTVL
For B4, the “stoichiometry N” value turned out to be 4 Fabs per NA tetramer.
